In US20090104207A1:

Molecular target: E1s (hepatitis C virus)
Assay: coating ELISA, E1s at 0.5 µg/ml, hybridoma supernatant

For 4G2 (antibody), the O.D. (450-595 nm) was > 2 O.D.
